Measured values reported in patent US20250163404A1, “PHAGE DISPLAY-BASED CELL-PENETRATING PEPTIDE DISCOVERY PLATFORM AND METHODS OF MAKING AND USING THE SAME” (Eli Lilly and Company, priority 2022, published 2025).

Assays:
[1] = test system: CHO cell lysosomal extracts (active cathepsins); assay: Phage infectivity after incubation with CHO cell lysosomal extract; format: biochemical, Chinese hamster
Method: (§1) Subcellular fractionation: cytosolic and endosomal extraction are prepared according to manufactures' protocols from ThermoFisher Scientific (Cat. No. 89842) and Invent Biotechnologies (Cat. No. #ED-028), respectively. The starting cell number is 5×10^6 cells for one cytosolic extraction, and 3×10^7 cells for one endosome extraction. Lysosomal isolation from different cell types are optimized based on an Abcam kit (Cat. No. ab234047) for homogenization step and increased isolation scale. The starting cell number for one lysosomal isolation is 2×10^8 cells.
(§2) Ten rounds of overnight phage culture described above are grown to evaluate substrate sequence retention for each phage clone. Sanger sequencing is performed after each round of phage culture to confirm the substrate insertion. Final phage clones with the substrate insertion are then evaluated for cathepsin accessibility by incubation with lysosomal extract from different mammalian cell lines.
The accessibility of the engineered GS2 linker of the 18 phage clones to active cathepsins (confirmed by fluorogenic cleaving assay) is assessed by incubating phage clones with CHO cell lysosomal extracts at 37° C. The assessment is repeated 4 times with independently isolated lysosome under acidic environment (about pH 5). […] (as shown in the representative graph in FIG. 2).
(§3) The accessibility of clone A1 and H4 to active cathepsins is further assessed in lysosomal extracts from CaCo2 and HEK293 cells in addition to CHO cells. […] (see, FIG. 3). CaCo2 lysosome: clone A1 (mean=79.83%, SEM=9.5%) vs. H4 (mean=34.63%, SEM=13.5%), p=0.22, n=3. HEK293 lysosome: clone A1 (mean=75.1%, SEM=9.7%) vs. H4 (mean=9.5%, SEM=1.6%), p=0.018, n=3. CHO lysosome: clone A1 (mean=95.58%, SEM=13.8%) vs. H4 (mean=2.738%, SEM=0.8%), p<0.0001, n=6.

[2] = test system: CaCo2 lysosome (lysosomal cathepsins); assay: Phage infectivity after incubation with CaCo2 lysosomal extract; format: biochemical; conditions: 30 min. incubation at 37° C., n=3
Method: as §1, §2
as §3, with “CHO lysosome: clone A1 (mean=95.58%, SEM=13.8%) vs. H4 (mean=2.738%, SEM=0.8%), p<0.0001, n=6.” left out

[3] = test system: HEK293 lysosome (lysosomal cathepsins); assay: Phage infectivity after incubation with HEK293 lysosomal extract; format: biochemical; conditions: 30 min. incubation at 37° C., n=3
Method: as §1, §2
as §3, with “CHO lysosome: clone A1 (mean=95.58%, SEM=13.8%) vs. H4 (mean=2.738%, SEM=0.8%), p<0.0001, n=6.” left out

B1: H4: engineered M13 IX104 phage clone with FLVIR cathepsin substrate copies in pIII GS2 linker (nucleic acid)
DNA: GCTGAAACTGTTGAAAGTTGTTTAGCAAAATCCCATACAGAAAATTCATTTACTAACGTCTGGAAAGACGACAAAACTTTAGATCGTTACGCTAACTATGAGGGCTGTCTGTGGAATGCTACAGGCGTTGTAGTTTGTACTGGTGACGAAACTCAGTGTTACGGTACATGGGTTCCTATTGGGCTTGCTATCCCTGAAAATGAGGGTGGTGGCTCTGAGGGTGGCGGTTCTGAGGGTGGCGGTTCTGAGGGTGGCGGTACTAAACCTCCTGAGTACGGTGATACACCTATTCCGGGCTATACTTATATCAACCCTCTCGACGGCACTTATCCGCCTGGTACTGAGCAAAACCCCGCTAATCCTAATCCTTCTCTTGAGGAGTCTCAGCCTCTTAATACTTTCATGTTTCAGAATAATAGGTTCCGAAATAGGCAGGGGGCATTAACTGTTTATACGGGCACTGTTACTCAAGGCACTGACCCCGTTAAAACTTATTACCAGTACACTCCTGTATCATCAAAAGCCATGTATGACGCTTACTGGAACGGTAAATTCAGAGACTGCGCTTTCCATTCTGGCTTTAATGAGGATTTATTTGTTTGTGAATATCAAGGCCAATCGTCTGACCTGCCTCAACCTCCTGTCAATGCTGGCGGCGGCTCTTTTTTAGTTATTAGAGGTGGTGGTTCTGGTGGCGGCTCTGAGGGTGGTGGCTCTGAGTTTTTAGTTATTAGAGGTGGCGGTTCTGAGGGTGGCGGCTCTGAGGGAGGCGGTTCCGGTGGTGGCTCTGGTTCCGGTGATTTTGATTATGAAAAGATGGCAAACGCTAATAAGGGGGCTATGACCGAAAATGCCGATGAAAACGCGCTACAGTCTGACGCTAAAGGCAAACTTGATTCTGTCGCTACTGATTACGGTGCTGCTATCGATGGTTTCATTGGTGACGTTTCCGGCCTTGCTAATGGTAATGGTGCTACTGGTGATTTTGCTGGCTCTAATTCCCAAATGGCTCAAGTCGGTGACGGTGATAATTCACCTTTAATGAATAATTTCCGTCAATATTTACCTTCCCTCCCTCAATCGGTTGAATGTCGCCCTTTTGTCTTTAGCGCTGGTAAACCATATGAATTTTCTATTGATTGTGACAAAATAAACTTATTCCGTGGTGTCTTTGCGTTTCTTTTATATGTTGCCACCTTTATGTATGTATTTTCTACGTTTGCTAACATACTGCGTAATAAGGAGTCT
With B1 the infectivity reduction ([1]; CHO lysosomal extract, 37° C., about pH 5) was 9800, the “infectivity (mean)” value ([1]; CHO lysosomal extract, 37° C., about pH 5, n=4) was 2% and the “infectivity (mean)” value ([1]; CHO lysosome, 30 min. incubation at 37° C., n=6) was 2.738%. For the same molecule, the “infectivity (mean)” value [2] was 34.63% and the “infectivity (mean)” value [3] was 9.5%.
